Patent publication US20070077239

Target: bovine serum albumin, P02769
Sequence (P02769 25-607): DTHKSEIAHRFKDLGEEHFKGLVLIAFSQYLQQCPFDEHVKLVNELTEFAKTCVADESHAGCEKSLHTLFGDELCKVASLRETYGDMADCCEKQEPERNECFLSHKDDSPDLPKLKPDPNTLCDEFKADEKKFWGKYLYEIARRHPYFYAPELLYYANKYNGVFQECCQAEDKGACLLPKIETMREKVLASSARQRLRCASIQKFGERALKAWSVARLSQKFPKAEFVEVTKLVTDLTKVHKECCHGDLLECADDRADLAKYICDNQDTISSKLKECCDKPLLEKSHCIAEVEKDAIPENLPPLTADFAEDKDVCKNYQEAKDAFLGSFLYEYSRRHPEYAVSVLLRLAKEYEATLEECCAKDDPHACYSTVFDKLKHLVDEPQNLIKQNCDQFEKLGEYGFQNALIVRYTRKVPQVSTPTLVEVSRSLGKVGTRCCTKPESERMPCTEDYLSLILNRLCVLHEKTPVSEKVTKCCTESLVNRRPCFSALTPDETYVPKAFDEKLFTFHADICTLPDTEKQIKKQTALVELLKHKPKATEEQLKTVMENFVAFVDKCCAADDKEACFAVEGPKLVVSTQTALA

B1: MPO purified from human PMNs (protein)
chain 1: not shown
chain 2: VNCETSCVQQPPCFPLKIPPNDPRIKNQADCIPFFRSCPACPGSNITIRNQINALTSFVDASMVYGSEEPLARNLRNMSNQLGLLAVNQRFQDNGRALLPFDNLHDDPCLLTNRSARIPCFLAGDTRSSEMPELTSMHTLLLREHNRLATELKSLNPRWDGERLYQEARKIVGAMVQIITYRDYLPLVLGPTAMRKYLPTYRSYNDSVDPRIANVFTNAFRYGHTLIQPFMFRLDNRYQPMEPNPRVPLSRVFFASWRVVLEGGIDPILRGLMATPAKLNRQNQIAVDEIRERLFEQVMRIGLDLPALNMQRSRDHGLPGYNAWRRFCGLPQPETVGQLGTVLRNLKLARKLMEQYGTPNNIDIWMGGVSEPLKRKGRVGPLLACIIGTQFRKLRDGDRFWWENEGVFSMQQRQALAQISLPRIICDNTGITTVSKNNIFMSNSYPRDFVNCSTLPALNLASWREAS
endocytosis of MPO in BLMVEC (confocal microscopy): in the presence of albumin, MPO staining was markedly co-localized with albumin-containing vesicles
transendothelial 125I-MPO permeability (BLMVEC on Transwell filters): increased more than 2-fold in the presence of albumin, as compared to γ-globulin
